B1: 14-3-3-like protein GF14 phi (Arabidopsis thaliana (Mouse-ear cress)), P46077 (parent)
chain: MAAPPASSSAREEFVYLAKLAEQAERYEEMVEFMEKVAEAVDKDELTVEERNLLSVAYKNVIGARRASWRIISSIEQKEESRGNDDHVTTIRDYRSKIESELSKICDGILKLLDTRLVPASANGDSKVFYLKMKGDYHRYLAEFKTGQERKDAAEHTLTAYKAAQDIANAELAPTHPIRLGLALNFSVFYYEILNSPDRACNLAKQAFDEAIAELDTLGEESYKDSTLIMQLLRDNLTLWTSDMQDESPEEIKEAAAPKPAEEQKEI
partner: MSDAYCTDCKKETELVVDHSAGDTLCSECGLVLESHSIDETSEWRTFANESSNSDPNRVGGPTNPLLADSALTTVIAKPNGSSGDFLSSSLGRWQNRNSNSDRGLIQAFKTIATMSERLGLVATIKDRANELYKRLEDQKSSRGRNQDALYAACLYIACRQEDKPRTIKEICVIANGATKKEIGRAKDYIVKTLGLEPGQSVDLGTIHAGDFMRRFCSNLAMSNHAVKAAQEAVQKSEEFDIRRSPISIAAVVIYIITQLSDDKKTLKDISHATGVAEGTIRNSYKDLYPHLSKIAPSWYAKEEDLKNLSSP
B2: 14-3-3 protein epsilon (Homo sapiens), P62258 (parent)
chain: MDDREDLVYQAKLAEQAERYDEMVESMKKVAGMDVELTVEERNLLSVAYKNVIGARRASWRIISSIEQKEENKGGEDKLKMIREYRQMVETELKLICCDILDVLDKHLIPAANTGESKVFYYKMKGDYHRYLAEFATGNDRKEAAENSLVAYKAASDIAMTELPPTHPIRLGLALNFSVFYYEILNSPDRACRLAKAAFDDAIAELDTLSEESYKDSTLIMQLLRDNLTLWTSDMQGDGEEQNKEALQDVEDENQ
B3: 14-3-3-like protein GF14 phi (Arabidopsis thaliana (Mouse-ear cress)), P46077 (parent)
chain: B1 chain
partner: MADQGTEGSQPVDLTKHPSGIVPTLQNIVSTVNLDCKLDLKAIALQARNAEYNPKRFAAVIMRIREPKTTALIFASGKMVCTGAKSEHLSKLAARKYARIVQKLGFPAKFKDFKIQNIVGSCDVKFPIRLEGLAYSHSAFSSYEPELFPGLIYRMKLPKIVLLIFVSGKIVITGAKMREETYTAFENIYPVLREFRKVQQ
B4: Transcription initiation factor IIB (Homo sapiens), Q00403 (parent)
chain: MASTSRLDALPRVTCPNHPDAILVEDYRAGDMICPECGLVVGDRVIDVGSEWRTFSNDKATKDPSRVGDSQNPLLSDGDLSTMIGKGTGAASFDEFGNSKYQNRRTMSSSDRAMMNAFKEITTMADRINLPRNIVDRTNNLFKQVYEQKSLKGRANDAIASACLYIACRQEGVPRTFKEICAVSRISKKEIGRCFKLILKALETSVDLITTGDFMSRFCSNLCLPKQVQMAATHIARKAVELDLVPGRSPISVAAAAIYMASQASAEKRTQKEIGDIAGVADVTIRQSYRLIYPRAPDLFPTDFKFDTPVDKLPQL
partner: B1 chain

Variants of: B1
Conditions: with tf2b1_arath TFIIB1, P48512

effect of a mutation on the interaction | Variant
decreasing interaction | L184A;N185A
decreasing interaction | V188A;F189A
disrupting interaction | F186A;S187A

Variants of: B2
Conditions: with tbp_human TBP

effect of a mutation on the interaction | Variant
disrupting interaction | F177A;S178A
decreasing interaction | V179A;F180A
decreasing interaction | L175A;N176A

Variants of: B3
Conditions: with tbp2_arath TBP2, P28148

effect of a mutation on the interaction | Variant
disrupting interaction | F186A;S187A
decreasing interaction | L184A;N185A
decreasing interaction | V188A;F189A

Variants of: B4
Conditions: with 14334_arath GRF4, P46077

effect of a mutation on the interaction | Variant
decreasing interaction | R185E;R193E

Reference: IntAct's records for PubMed 10449590
